The record followed here is paper PMC4838857, “Tum/RacGAP functions as a switch activating the Pav/kinesin-6 motor” (Nature Communications, 2016).

By stoichiometry N is commonly meant a count of units in the complex or per binding partner. For orientation: Km means the concentration of substrate that gives half-maximal velocity.

The target of data set [1] is Pav/kinesin-6 (Pavarotti, Pav-KLP), full length with C-terminal 6xHis (Drosophila melanogaster). Kind of data set: SEC + other: sucrose gradient sedimentation; hydrodynamic analysis (Siegel and Monty) of centralspindlin purified from co-expression: Superose 6 and 5-20% sucrose gradient, 4 °C.
Data set [2] shares this target. As to the kind of experiment: SEC + other: sucrose gradient sedimentation; hydrodynamic analysis (Siegel and Monty) of the in vitro add-back: equal molar Pav/kinesin-6 and Tum/RacGAP, purified apart, mixed and incubated.
For data set [3] the target is unchanged. As to the kind of experiment: SEC + other: sucrose gradient sedimentation; hydrodynamic analysis (Siegel and Monty) of each protein alone: Stokes radius by Superose 6, S value on 5-20% sucrose gradient, 9 h at 55,000 r.p.m., 4 °C.
The target is the same in data set [4].
Data set [5] deals with Tum/RacGAP (Tumbleweed, RacGAP50C), full length with C-terminal 6xHis (Drosophila melanogaster). Kind of data set: SEC + other: sucrose gradient sedimentation; hydrodynamic analysis (Siegel and Monty) of the in vitro add-back: equal molar Pav/kinesin-6 and Tum/RacGAP, purified apart, mixed and incubated.
Data set [6] shares this target. As to the kind of experiment: SEC + other: sucrose gradient sedimentation; hydrodynamic analysis (Siegel and Monty) of each protein alone: Stokes radius by Superose 6, S value on 5-20% sucrose gradient, 9 h at 55,000 r.p.m., 4 °C.
Data set [7] deals with Tum/RacGAP (Tumbleweed, RacGAP50C), full length, untagged, co-expressed with Pav/kinesin-6 (Drosophila melanogaster). As to the kind of experiment: SEC + other: sucrose gradient sedimentation; hydrodynamic analysis (Siegel and Monty) of centralspindlin purified from co-expression: Superose 6 and 5-20% sucrose gradient, 4 °C.
Substrate in data set [8]: Nc1ncnc2c1ncn2[C@@H]1O[C@H](COP(=O)(O)OP(=O)(O)OP(=O)(O)O)[C@@H](O)[C@H]1O
As to the kind of experiment: microtubule gliding velocity vs [MgATP], Lineweaver-Burk. The class given is biochemical, Drosophila melanogaster. The settings on record: motility-derived Km, saturating taxol-stabilised microtubules, Mg2+, pH 8.0, 150 mM KCl. The text has this:
microtubule gliding velocity vs [MgATP], Lineweaver-Burk on centralspindlin (co-expressed Pav/Tum)

“Pav/kinesin-6 (Pavarotti, Pav-KLP), full length with C-terminal 6xHis (natural protein)”: the stoichiometry N in data set [1], in data set [2] and in data set [3] was 2 subunits each time.
Turning to “Tum1-65 fragment (1-65aa of Tum/RacGAP) with C-terminal 6xHis (domain or fragment)”, the MT gliding velocity of Pav+Tum1-65 (in vitro add-back); Pav/kinesin-6 alone 0 in data set [4] was determined as 0.075 μm s^-1.
The molecule “Tum/RacGAP (Tumbleweed, RacGAP50C), full length with C-terminal 6xHis (natural protein)” displayed an MT gliding velocity of Pav+Tum (in vitro add-back, equal molar); Pav/kinesin-6 alone 0 in data set [4] of 0.062 μm s^-1. The stoichiometry N in data set [5] and in data set [6] was 2 subunits throughout.
Turning to “Tum/RacGAP (Tumbleweed, RacGAP50C), full length, untagged, co-expressed with Pav/kinesin-6 (natural protein)”, the MT gliding velocity of centralspindlin (co-expressed Pav/Tum); Pav/kinesin-6 alone 0 in data set [4] is 0.103 μm s^-1. The stoichiometry N in data set [7] was determined as 2 subunits.

B1: centralspindlin (co-expressed Pav/Tum) (Drosophila melanogaster) (protein)
chain: MKAVPRTPMRVVPKTPRVHQTVEKQRRDTSDKARDPVNVFCRVRPLQSDADLTSLRVKNSTTIALNPQDQLLQHHKPHNGAQREVQYIFKHVFQPDATQQDVYAAVAQPLVENLLKGRNSLLFTYGVTGSGKTYTMTGNLRHRGIMPRCLDVLFRTISDYQAKKFVFKPDKLNGFEILSEEDALLERQHEMNQRFAGSGRFAFRHKDSDPEIASQASVEPIPLLGLDEDNMYSVFVTYIEIYNNSVYDLLEDSGIQKTLQSKIIREDANRHMFVHGVTEVEVKTVEDALEVFQMGQKRKRMGHTVLNAESSRSHSVFNIRLVQAPTDSQGENVVQDRQNITVSQLSLVDLAGSERSSRTKNTGVRLREAGNINNSLMTLRTCLEYLRENQLAASNGLAPKKVPYRDSKITHMFKNYFDGEGQVSMIVCINPRIEDYDENMQVMKFAEMTQEVQIARATPMKQDLGLTPGRRKANKLFKIAVNNLNELGIPEAKDLEVDVGLVYSLGPDFPAYEMDSPEAQIKIRELMHYLEQRIEKRKKLRANLDIKCDSFRQMLMNLDRDNLQLRTELASLKAVYKQERDRSAALEKKVRIHESSIDVLNNTLSKQERQIEELTFKLNEKENMLTQKEHEKEKQKKKFSSKLAVESDKNKREFELKLREQRVKLQERMRIKDEKLRLVSNILQSEDLPSLPRSQSSENILNEKDRGAYTARTEESSVPATRTDIYATPRHGAAAANNRHRRSRSAGDKWLEHRAANPVPLGTIMQPYLKNRKSVTKLTDLKELTAHGTTKYCLVSQDADTDGDVETKLYKGNVIPTCGGGAQVVFNDVECLKQKSPVHSPTRKRPSNGNISALGGGAVPSTVTSAQDVASRCNLGIEGHSSKKSKI
notes: full-length Pav with C-terminal 6xHis co-expressed with untagged full-length Tum in Sf9 (baculovirus), Ni-NTA and Superose 6; heterotetramer 372 kDa (2 Pav 107 kDa + 2 Tum 65 kDa); cDNA errors in Tum corrected
Consider B1, for which the Km in data set [8] is 79 ± 13 µM.
